Measurements taken from patent publication US20220226382A1, “Nutritional Composition” (MORINAGA MILK INDUSTRY CO., LTD., priority 2019, published 2022).

Test system: simian rotavirus SA11 strain
Test: Plaque assay: antiviral action against simian rotavirus in MA104 cells (infection-suppressing ratio)
Type: cell-based
Details: LF alone, n=3
Procedure: The simian rotavirus SA11 strain (Nihon Bioresearch Inc.) was inoculated to the MA104 cells (Sigma-Aldrich) of African green monkey kidney maintained in a minimum essential medium (Sigma-Aldrich, henceforth referred to simply as “medium”). The simian rotavirus SA11 strain, for example, can be obtained from American Type Culture Collection (ATCC) as ATCC VR-1565. To the medium, lactoferrin (LF) and/or the human milk oligosaccharide(s) shown below were added beforehand alone or in combination at the following concentrations, respectively (n=3).
LF (produced by Morinaga Milk Industry Co., Ltd.): 0, 0.1 or 1.0 mg/mL
2′-Fucosyllactose (2′-FL, Funakoshi Co., Ltd.): 0, 0.1, 0.5, or 2.5 mg/mL
3-Fucosyllactose (3-FL, Funakoshi Co., Ltd.): 0, 0.1, or 0.5 mg/mL
3′-Sialyllactose (3′-SL, Funakoshi Co., Ltd.): 0, 0.1, or 0.5 mg/mL
6′-Sialyllactose (6′-SL, Funakoshi Co., Ltd.): 0, 0.1, or 0.5 mg/mL […]
Degree of infection was evaluated based on the number of “plaques” formed when the cells were infected with the virus. Specifically, the antiviral effects of lactoferrin and human milk oligosaccharides were evaluated based on “plaque-suppressing ratio (%)”, i.e., the ratio of “plaque counts observed with lactoferrin and/or human milk oligosaccharide(s) supplementation” to “plaque counts observed without these supplementation”. […]

B1: lactoferrin (protein, UniProt P24627 20-708, looked up)
Lactotransferrin: APRKNVRWCTISQPEWFKCRRWQWRMKKLGAPSITCVRRAFALECIRAIAEKKADAVTLDGGMVFEAGRDPYKLRPVAAEIYGTKESPQTHYYAVAVVKKGSNFQLDQLQGRKSCHTGLGRSAGWIIPMGILRPYLSWTESLEPLQGAVAKFFSASCVPCIDRQAYPNLCQLCKGEGENQCACSSREPYFGYSGAFKCLQDGAGDVAFVKETTVFENLPEKADRDQYELLCLNNSRAPVDAFKECHLAQVPSHAVVARSVDGKEDLIWKLLSKAQEKFGKNKSRSFQLFGSPPGQRDLLFKDSALGFLRIPSKVDSALYLGSRYLTTLKNLRETAEEVKARYTRVVWCAVGPEEQKKCQQWSQQSGQNVTCATASTTDDCIVLVLKGEADALNLDGGYIYTAGKCGLVPVLAENRKSSKHSSLDCVLRPTEGYLAVAVVKKANEGLTWNSLKDKKSCHTAVDRTAGWNIPMGLIVNQTGSCAFDEFFSQSCAPGADPKSRLCALCAGDDQGLDKCVPNSKEKYYGYTGAFRCLAEDVGDVAFVKNDTVWENTNGESTADWAKNLNREDFRLLCLDGTRKPVTEAQSCHLAVAPNHAVVSRSDRAAHVKQVLLHQQALFGKNGKNCPDKFCLFKSETKNLLFNDNTECLAKLGGRPTYEEYLGTEYVTAIANLKKCSTSPLLEACAFLTR
notes: produced by Morinaga Milk Industry Co., Ltd
0.1 mg/mL
  infection-suppressing ratio: 8.7%
1.0 mg/mL
  infection-suppressing ratio: 39%
